Assay: soluble on expression in E. coli; label from the status in PepcDB or PDB records

Sequence: MGSDKIHHHHHHMEILMLKTFKAVVDEDGIKGAADKLHTVQSNITSRIKKLEKELDTKLFTIIGRKLQLTPSGQQLCEYADQILQLEYQATSAILRNKGTYELRVGMPETFAAVHMPMALKKLKLNHAEIRTKIHTDTSERLVFSVLNNKVDCAAIGNAPKHENLIIIPIVKEELIMVTPRDSEHDPVLFVRDEGCGYRKHALIWQQKAGRGNDELMVMSSADGVLGCIAAGLGYTIIGKNMVAGSRYEKSLVMTPVSHGPKHVQLSIVYRKDSPLESGILTLAKLLTK
- soluble on expression in E. coli: not soluble

Sequence: MSLDFNTLAQNFTQFYYNQFDTDRSQLGNLYRNESMLTFETSQLQGAKDIVEKLVSLPFQKVQHRITTLDAQPASPYGDVLVMITGDLLIDEEQNPQRFSQVFHLIPDGNSYYVFNDIFRLNYSA
- soluble on expression in E. coli: soluble

Sequence: MGSDKIHHHHHHMLISVVLPAYNVQDTIGESIDSILSQTFTDFELIIINDGSQDNTEEVIHAYSDKRIRYYRNEKNEGLIYTLNRGLDLAQGKYIARMDADDVSLPTRFEKQVKVMEESPNIVVCGTQIILFGVDTAKRFTLFLPEESEDLKNLLFIQTCFAHPTVMVRRQVLIDNEVRYDADYPHAEDYKMWIDLSLLGEFYNIQEPLLRYRLSDGQVSHKFSDVQKRTASACRRFLISARFKDEKLDRQIENSIDISTICYIKKKEYPRELLEVLYSSLRKYNFKCLCYLFVSGDIFRFEIVVALALLKRFIIKKDRLL
- soluble on expression in E. coli: not soluble

Sequence: MDQKRLTHLRQLEAESIHIIREVAAEFANPVMLYSIGKDSSVMLHLARKAFYPGTLPFPLLHVDTGWKFREMYAFRDRTANAYGCELLVHKNPEGVAMGINPFVHGSAKHTDIMKTEGLKQALNKYGFDAAFGGARRDEEKSRAKERIYSFRDRFHRWDPKNQRPELWRNYNGQINKGESIRVFPLSNWTEQDIWQYIWLENIDIVPLYLAAERPVLERDGMLMMVDDDRIDLQPGEVIKKRMVRFRTLGCWPLTGAVESHAQTLPEIIEEMLVSTTSERQGRMIDRDQAGSMELKKRQGYF
- soluble on expression in E. coli: not soluble

Sequence: MATESSSPSSVRKVVVHLRATGGAPILKQSKFKIPGTDKFAKVIDFLRRQLHSDSLFVYVNSAFSPNPDESVIDLYNNFGFDGKLVVNYACSMAWG
- soluble on expression in E. coli: not soluble

Sequence: MGSDKIHHHHHHVATGTGLVAIPAAEKVGSEGYVIGIDMTPGMLHQARIKIAAAKLQNIELIEADVEYFNFSESSFDVVFCCEAIVLVPDILAILKKWYRFLKPGGFVAFTCPPETAFMASLQQRICARVLGVSLPHILEPLGTPEKCRNLLNQAGFRDIEIKIEPSGRYRPLRDNRLSEIAININFKGNPLLSKLSQEQLNQLQVEYKAEIEKLATEQGIWEDTTKLFVRARK
- soluble on expression in E. coli: not soluble

Sequence: MGSDKIHHHHHHMIIESRIEKGKPVVGMETTVFVHGLPRKEAIELFRRAKEISREKGFQLAVIGILKGKIVAGMSEEELEAMMREGADKVGTREIPIVVAEGKNAATTVSATIFLSRRIGIEVVVTGGTGGVHPGRVDVSQDLTEMSSSRAVLVSSGIKSILDVEATFEMLETLEIPLVGFRTNEFPLFFSRKSGRRVPRIENVEEVLKIYESMKEMELEKTLMVLNPVPEEYEIPHDEIERLLEKIELEVEGKEVTPFLLKKLVEMTNGRTLKANLALLEENVKLAGEIAVKLKRS
- soluble on expression in E. coli: not soluble

Sequence: MIVGEDQLWGRRALEFVDSVERLEAPALISRFESLIASCGFTAYIMAGLPSRNAGLPELTLANGWPRDWFDLYVSENFSAVDPVPRHGATTVHPFVWSDAPYDRDRDPAAHRVMTRAAEFGLVEGYCIPLHYDDGSAAISMAGKDPDLSPAARGAMQLVSIYAHSRLRALSRPKPIRRNRLTPRECEILQWAAQGKTAWEISVILCITERTVKFHLIEAARKLDAANRTAAVAKALTLGLIRL
- soluble on expression in E. coli: not soluble

Sequence: MRRFKQQLAGRPAAAEIPLKRWLGVASHRCPAGPKRRRHDVMTCPSTQLRLAPITTGLVRRNPRILLSGPHQPTLVRYLEGWPKRWNGSRTFLIQFAQDGKDLARFPSDAFDFAVVQAPEAEDLDLVVRQLIRVARQGLITRRILR
- soluble on expression in E. coli: not soluble

Sequence: MISIIIPAFNEERRIGRTLEKISSTLPNAEIVVVFDGHDNTPEVVKKFPVKLLISESRLGKGGAIKRGINESNFQRVLLLDADFPITEEELDKILSTDADLVIPKRKIVGMPLKRKFLHKGFIIITKILFPSLAKFSDFQAGVKLVNREKVLDILDELIINDFLFDVNLIYGFKRRHYKVKEVEINYIHDESDSKISKKLIKVIILMFLSLIKLRVYYSPFRKILYTKTYLKAQDYILRKLRLEHHHHHH
- soluble on expression in E. coli: not soluble

Sequence: MSLRSQQSGILGVIVADIRNPYFTALIRAVEEVAYRAGMRVTLCNTDEDPEREALYLELMQEERITGLIFAPTRVTVGRMHELALDYPTVLVDRAGPGSRYDSVVLDNGAAMAELVAHLQAQGYRRIGGLFGSTSTTAAERRDGYLAAMRAQGLQPDYREVAPTAEAAIAELGAWLANDQRPEAIVTSNSLLLMGALKAARTAGLRLPQDLALAGFDNERWTDLVEPGITVVEQPVEDMGRAAMSLLLERLSNRQLPIRRLVMTGRCVVRGSTAEGHHHHHH
- soluble on expression in E. coli: soluble

Sequence: MSVLDELYREILLDHYQSPRNFGVLPQATKQAGGMNPSCGDQVEVMVLLEGDTIADIRFQGQGCAISTASASLMTEAVKGKKVAEALELSRKFQAMVVEGAPPDPTLGDLLALQGVAKLPARVKCATLAWHALEEALR
- soluble on expression in E. coli: soluble

Sequence: MGSDKIHHHHHHMSMKISEKKFNDRVGDGIQDSFMRGAVSSAQTRLYTNRLKAADELGNWEEWRELGEEIRQHTLENLDYYLMQLSENVSKRGGHVYFAKTKEEAAKYIQDVAKKKQAKKVVKSKSMVTEEISMNHALEEIGCEVLESDLGEYILQVDNDPPSHIIAPALHKNRTQIRDVFKEKLGYENSDDPYEMTKFVRKQLREKFMDAEIGVTGCNFAVANTGSLCLVTNEGNADLVMSIPKTQIAVMGMERMVPTMEELDVLVGLLCRSAVGQKLTSYVTVAGPIQEEEVDGPEEFHLVVVDNGRSQILGSEFRQVLQCIRCAACVNVCPVYRHVGGHSYGSIYSGPIGAVLTPLLGGYDDYKELPYASSLCGACTEACPVKIPLHDLLLKHRQVIVEQEGRAPLAEKLAMKMFSMGASSAALYKMGSKMAPAAMSPFTSGNRVSKGVGPLKNWTDIREFPAPSKERFRDWYKDHKKGGDK
- soluble on expression in E. coli: not soluble

Sequence: MSESYTLIKELKRQLKSAGLHYVDVAQHLNLSEGSVKRLLAEGQHISLERLERICQLIGLEMAELFKLAAAHNKGLESLTLEQEKQLVDDKALLLVAICVVNGYQFEQIVQQYTFNELELVQKLAHLDRLNIIDLQPNNKIRLRISPTFKWQMGGPIQRFFQQQVQDAFFQSYFSGEDEQLSMATGLMSVPTNKKLQQKLQKVIDEFYQACQSDSSLDMDEKHGTSLIIAMRRWTFPLFEPWERKPTQKSQN
- soluble on expression in E. coli: not soluble

Sequence: MGAPALPQIWQLYLKNYRIATFKNWPFLEDCACTPERMAEAGFIHCPTENEPDLAQCFFCFKELEGWEPDDNPIEEHRKHSPGCAFLTVKKQMEELTVSEFLKLDRQRAKNKIAKETNNKQKEFEETAKTTRQSIEQLAA
- soluble on expression in E. coli: soluble

Sequence: MPTLLIRLQGPLQSWGTRSRFDHRDTWPYPTKSGVVGLLAAALGRDRREDVSDLAALRMGVRVDRKGVLKVDYQTAQFVYRTEGYVAVSTPKEREWLSRYTKTPIRVDERNATVTSKRYFLSDAAFLVGLEGERALLEALHRALKNPRFPLYLGRKSYVPSPPPYLPDGLVEAPLAEALEGYPYLLGGKPPEDLLLALEAEEGRLVYDQPAGPFSERRFAARFVREEVLPKERVPEGPPAWEVARVAH
- soluble on expression in E. coli: soluble

Sequence: MHTFYLPFILSLSMPPKKKSSKTIYKFPQSFHDLPKSLSKNYYQPEPESIINDQIIIIKNFFNKDLCNELIKSFETQLNMETTPLIKSKEYAARFNDRSSMNDLLSANILWQYLQKILLDNPYNDEDLKEINQIFQDAVGLNPQLRVYRYTRGHHFGKHYDDSVICPIPPQGTKKGYTTWTLLIYLTGDEEFKGGGTIFYPEIKNIKPLNIHPNKGMALLHKHGDDCLKHEAEMVANGAKWVLRSDVVFPI
- soluble on expression in E. coli: soluble

Sequence: MGSDKIHHHHHHMQPEIRKIVTYDEEVLIEGFRKADAPWRMFAIACVVRNPWAGRFVEDLKPEIMAYGPVLGELMTERMITLAGSGDAIEAYGKAAIVGVDGEVEHASGLIHTLRFGNFFREAVGANSYLAFTNTRGPANAPIMVPLMDKNDAGRRSHYLTIQFAIPDAPRADEIVVLLGAATSGRPHHRIGDRYQDLKDLGHDLDNPAAV
- soluble on expression in E. coli: not soluble

Sequence: MLRVAVSAALRTVSVRALSNASVQQRVITPILLSAQKPSFQIRQYSAKAPLTKKTLEERIVLVLSLYDKIDAKKLTMDSDFSKDLGLDSLDHVEVVMAMEEEFGFEIPDGDADRFKTPRDIFQYIADKEDVFE
- soluble on expression in E. coli: not soluble

Sequence: MSLDSPTASSNGDLIEEIQASSTSTDPRTFTGLSIVEDIGDVVPVTDNASPALPVSLTDADGNDVVVEDVSRILPLDLYGTYSKTIAGLGLVDNIVGRTVSSTEPALADTEVVTTGGHTLNAEAILNLHPTLVIIDHSIGPREVIDQIRAAGVATVIMSPQRSIASIGDDIRDIASVVGLPEEGEKLAERSVAEVEEASTVVDELTPEDPLKMVFLYARGTGGVFFILGDAYGGRDLIEGLGGVDMAAEKGIMDLAPANAEALAELNPDVFVMMSEGLVSTGGIDGLMERPGIAQTTAGQNQRVLALPDGQSLAFGAQTGELLLRASRELYVQGGEGHHHHHH
- soluble on expression in E. coli: soluble

Sequence: SSSPPEGKLETKAGHPPAVKAGGMRIVQKHPHTGDGKEERDKDDQEWESTSPPKPTVFISGVIARGDKDFPPAAAQVAHQKPHASMDKHVSPRTQHIQQPRK
- soluble on expression in E. coli: soluble

Sequence: SMKQDSRFPNLFILDHPLIQHKLTHMRDKDTSTRTFRELLREITLLMGYEITRNLPITTKRVETPLVEIDAPVIAGKKLAIVPVLRAGVGMSDGLLELIPSARVGHIGVYRADDHRPVEYLVRLPDLEDRIFILCDPMVATGYSAAHAIDVLKRRGVPGERLMFLALVAAPEGVQVFQDAHPDVKLYVASLDSHLDDHAYIVPGLGDAGDRLFGTKN
- soluble on expression in E. coli: soluble

Sequence: MEGMDHGSHSMPMGASSDAPAQSRTPIPPVTDADRAAVYTSHSGHQVHDSAINSYFVADKLEWQDANDGSALAWDLSGWIGGDIDRLLLRSEGERTNGKTEEAEVQALWGHAVSSSWDVVAGARQDFKPGAPQTWAAFGLQGQAISDLDVEATAFIGDAGQTAARLEADYDLLLTNDLILQPTGELNFYGKNDPQRGNGSGLSTSEFGLRLRYEITPQFAPYVGVTWNRSYGKTADYAREDDEDVAQARLVVGLRLWFLEHHHHHH
- soluble on expression in E. coli: not soluble

Sequence: LYFQGMSLEPFGARLSRAMDDRGPLCVGIDPHASLLADWGLSDDVAGLERFSRTVVEALGEHVAVFKPQSAFFERFGSRGVAVLEKTVAEARAAGALVVMDAKRGDIGSTMAAYAEAFLRKDSPLFSDALTVSPYLGYGSLRPAVELARESGAGLFVLALTSNPEGGEVQHAVRTDGRDVAATMLAHLAAENAGEEPLGSFGAVVGATLGDLSSYDLDINGPLLAPGIGAQGAAPADLPGVFGAAVRNVVPNVSRGVLRHGPDVRALRTAADRFAEEIRAAVAA
- soluble on expression in E. coli: soluble

Sequence: MQWETVIGLEIHAQLATQSKIFSGSSTAFGAAPNTQASLVDLAMPGTLPVLNEEAVRMACLFGLAIDARIDRQNVFARKNYFYPDLPKGYQTSQMDHPIVGKGHLDITLEDGTTKRIGITRAHLEEDAGKSLHEDFQGMSGIDLNRAGTPLLEIVSEPDIRSAKEAVAYVKAIHALVRYLGICDGNMAEGSLRCDCNVSVRPKGQAEFGTRAEIKNVNSFRFIEKAINHEIQRQIELIEDGGKVVQETRLYDPNKDETRSMRGKEEANDYRYFPCPDLLPVVIEPEYLAKLREQLPELPVQKRERFESQYGLSAYDASVLSASREMADYFEKVQGICGDAKLAANWVMVELGSLLNKDGLEIEQSPVSAEQLGGMILRIKDNTISGKLAKMVFEAMANGEGSADQIIEAKGLKQVTDSGAIEKMLDEVLAANAEQVEQYRAADEAKRGKMFGFFVGQAMKASKGKANPQQVNELLKKKLEA
- soluble on expression in E. coli: not soluble

— the DeepSol protein solubility set
